Test results reported in patent US20220042033A1, “COMPOSITION AND METHOD FOR CONFERRING AND/OR ENHANCING TOLERANCE AGAINST HERBICIDES BY USING VARIANTS OF PPO” (FarmHannong Co., Ltd., priority 2017, published 2022).

B1: V164A: MxPPO (SEQ ID NO: 3) variant (protein)
chain: MHHMPRTTGMNVAVVGGGISGLAVAHHLRSRGTDAVLLESSARLGGAVGTHALAGYLVEQGPNSFLDREPATRALAAALNLEGRIRAADPAAKRRYVYTRGRLRSVPASPPAFLASDILPLGARLRVAGELFSRRAPEGVDESLAAFGRRHLGHRATQVLLDAAQTGIYAGDVEQLSVAATFPMLVKMEREHRSLILGAIRAQKAQRQAALPAGTAPKLSGALSTFDGGLQVLIDALAASLGDAAHVGARVEGLAREDGGWRLIIEEHGRRAELSVAQVVLAAPAHATAKLLRPLDDALAALVAGIAYAPIAVVHLGFDAGTLPAPDGFGFLVPAEEQRRMLGAIHASTTFPFRAEGGRVLYSCMVGGARQPGLVEQDEDALAALAREELKALAGVTARPSFTRVFRWPLGIPQYNLGHLERVAAIDAALQRLPGLHLIGNAYKGVGLNDCIRNAAQLADALVAGNTSHAP
modifications: Synthetic (Protoporphyrinogen IX oxidase (MxPPO) of Myxococcus xanthus)
B2: I345T: MxPPO (SEQ ID NO: 3) variant (protein)
chain: MHHMPRTTGMNVAVVGGGISGLAVAHHLRSRGTDAVLLESSARLGGAVGTHALAGYLVEQGPNSFLDREPATRALAAALNLEGRIRAADPAAKRRYVYTRGRLRSVPASPPAFLASDILPLGARLRVAGELFSRRAPEGVDESLAAFGRRHLGHRATQVLLDAVQTGIYAGDVEQLSVAATFPMLVKMEREHRSLILGAIRAQKAQRQAALPAGTAPKLSGALSTFDGGLQVLIDALAASLGDAAHVGARVEGLAREDGGWRLIIEEHGRRAELSVAQVVLAAPAHATAKLLRPLDDALAALVAGIAYAPIAVVHLGFDAGTLPAPDGFGFLVPAEEQRRMLGATHASTTFPFRAEGGRVLYSCMVGGARQPGLVEQDEDALAALAREELKALAGVTARPSFTRVFRWPLGIPQYNLGHLERVAAIDAALQRLPGLHLIGNAYKGVGLNDCIRNAAQLADALVAGNTSHAP
modifications: Synthetic (Protoporphyrinogen IX oxidase (MxPPO) of Myxococcus xanthus)
B3: L332T: MxPPO (SEQ ID NO: 3) variant (protein)
chain: MHHMPRTTGMNVAVVGGGISGLAVAHHLRSRGTDAVLLESSARLGGAVGTHALAGYLVEQGPNSFLDREPATRALAAALNLEGRIRAADPAAKRRYVYTRGRLRSVPASPPAFLASDILPLGARLRVAGELFSRRAPEGVDESLAAFGRRHLGHRATQVLLDAVQTGIYAGDVEQLSVAATFPMLVKMEREHRSLILGAIRAQKAQRQAALPAGTAPKLSGALSTFDGGLQVLIDALAASLGDAAHVGARVEGLAREDGGWRLIIEEHGRRAELSVAQVVLAAPAHATAKLLRPLDDALAALVAGIAYAPIAVVHLGFDAGTLPAPDGFGFTVPAEEQRRMLGAIHASTTFPFRAEGGRVLYSCMVGGARQPGLVEQDEDALAALAREELKALAGVTARPSFTRVFRWPLGIPQYNLGHLERVAAIDAALQRLPGLHLIGNAYKGVGLNDCIRNAAQLADALVAGNTSHAP
modifications: Synthetic (Protoporphyrinogen IX oxidase (MxPPO) of Myxococcus xanthus)
B4: M365V: MxPPO (SEQ ID NO: 3) variant (protein)
chain: MHHMPRTTGMNVAVVGGGISGLAVAHHLRSRGTDAVLLESSARLGGAVGTHALAGYLVEQGPNSFLDREPATRALAAALNLEGRIRAADPAAKRRYVYTRGRLRSVPASPPAFLASDILPLGARLRVAGELFSRRAPEGVDESLAAFGRRHLGHRATQVLLDAVQTGIYAGDVEQLSVAATFPMLVKMEREHRSLILGAIRAQKAQRQAALPAGTAPKLSGALSTFDGGLQVLIDALAASLGDAAHVGARVEGLAREDGGWRLIIEEHGRRAELSVAQVVLAAPAHATAKLLRPLDDALAALVAGIAYAPIAVVHLGFDAGTLPAPDGFGFLVPAEEQRRMLGAIHASTTFPFRAEGGRVLYSCVVGGARQPGLVEQDEDALAALAREELKALAGVTARPSFTRVFRWPLGIPQYNLGHLERVAAIDAALQRLPGLHLIGNAYKGVGLNDCIRNAAQLADALVAGNTSHAP
modifications: Synthetic (Protoporphyrinogen IX oxidase (MxPPO) of Myxococcus xanthus)
B5: A170C: MxPPO (SEQ ID NO: 3) variant (protein)
chain: MHHMPRTTGMNVAVVGGGISGLAVAHHLRSRGTDAVLLESSARLGGAVGTHALAGYLVEQGPNSFLDREPATRALAAALNLEGRIRAADPAAKRRYVYTRGRLRSVPASPPAFLASDILPLGARLRVAGELFSRRAPEGVDESLAAFGRRHLGHRATQVLLDAVQTGIYCGDVEQLSVAATFPMLVKMEREHRSLILGAIRAQKAQRQAALPAGTAPKLSGALSTFDGGLQVLIDALAASLGDAAHVGARVEGLAREDGGWRLIIEEHGRRAELSVAQVVLAAPAHATAKLLRPLDDALAALVAGIAYAPIAVVHLGFDAGTLPAPDGFGFLVPAEEQRRMLGAIHASTTFPFRAEGGRVLYSCMVGGARQPGLVEQDEDALAALAREELKALAGVTARPSFTRVFRWPLGIPQYNLGHLERVAAIDAALQRLPGLHLIGNAYKGVGLNDCIRNAAQLADALVAGNTSHAP
modifications: Synthetic (Protoporphyrinogen IX oxidase (MxPPO) of Myxococcus xanthus)
B6: I168C: MxPPO (SEQ ID NO: 3) variant (protein)
chain: MHHMPRTTGMNVAVVGGGISGLAVAHHLRSRGTDAVLLESSARLGGAVGTHALAGYLVEQGPNSFLDREPATRALAAALNLEGRIRAADPAAKRRYVYTRGRLRSVPASPPAFLASDILPLGARLRVAGELFSRRAPEGVDESLAAFGRRHLGHRATQVLLDAVQTGCYAGDVEQLSVAATFPMLVKMEREHRSLILGAIRAQKAQRQAALPAGTAPKLSGALSTFDGGLQVLIDALAASLGDAAHVGARVEGLAREDGGWRLIIEEHGRRAELSVAQVVLAAPAHATAKLLRPLDDALAALVAGIAYAPIAVVHLGFDAGTLPAPDGFGFLVPAEEQRRMLGAIHASTTFPFRAEGGRVLYSCMVGGARQPGLVEQDEDALAALAREELKALAGVTARPSFTRVFRWPLGIPQYNLGHLERVAAIDAALQRLPGLHLIGNAYKGVGLNDCIRNAAQLADALVAGNTSHAP
modifications: Synthetic (Protoporphyrinogen IX oxidase (MxPPO) of Myxococcus xanthus)
B7: M365I: MxPPO (SEQ ID NO: 3) variant (protein)
chain: MHHMPRTTGMNVAVVGGGISGLAVAHHLRSRGTDAVLLESSARLGGAVGTHALAGYLVEQGPNSFLDREPATRALAAALNLEGRIRAADPAAKRRYVYTRGRLRSVPASPPAFLASDILPLGARLRVAGELFSRRAPEGVDESLAAFGRRHLGHRATQVLLDAVQTGIYAGDVEQLSVAATFPMLVKMEREHRSLILGAIRAQKAQRQAALPAGTAPKLSGALSTFDGGLQVLIDALAASLGDAAHVGARVEGLAREDGGWRLIIEEHGRRAELSVAQVVLAAPAHATAKLLRPLDDALAALVAGIAYAPIAVVHLGFDAGTLPAPDGFGFLVPAEEQRRMLGAIHASTTFPFRAEGGRVLYSCIVGGARQPGLVEQDEDALAALAREELKALAGVTARPSFTRVFRWPLGIPQYNLGHLERVAAIDAALQRLPGLHLIGNAYKGVGLNDCIRNAAQLADALVAGNTSHAP
modifications: Synthetic (Protoporphyrinogen IX oxidase (MxPPO) of Myxococcus xanthus)
B8: F329V: MxPPO (SEQ ID NO: 3) variant (protein)
chain: MHHMPRTTGMNVAVVGGGISGLAVAHHLRSRGTDAVLLESSARLGGAVGTHALAGYLVEQGPNSFLDREPATRALAAALNLEGRIRAADPAAKRRYVYTRGRLRSVPASPPAFLASDILPLGARLRVAGELFSRRAPEGVDESLAAFGRRHLGHRATQVLLDAVQTGIYAGDVEQLSVAATFPMLVKMEREHRSLILGAIRAQKAQRQAALPAGTAPKLSGALSTFDGGLQVLIDALAASLGDAAHVGARVEGLAREDGGWRLIIEEHGRRAELSVAQVVLAAPAHATAKLLRPLDDALAALVAGIAYAPIAVVHLGFDAGTLPAPDGVGFLVPAEEQRRMLGAIHASTTFPFRAEGGRVLYSCMVGGARQPGLVEQDEDALAALAREELKALAGVTARPSFTRVFRWPLGIPQYNLGHLERVAAIDAALQRLPGLHLIGNAYKGVGLNDCIRNAAQLADALVAGNTSHAP
modifications: Synthetic (Protoporphyrinogen IX oxidase (MxPPO) of Myxococcus xanthus)

What follows are molecules tested on MxPPO (assay: PPO enzyme activity of purified MBP-fused MxPPO wild type and variants). Conditions: PPO enzyme activity of purified MxPPO protein, relative to wild type.
Format: biochemical, Myxococcus xanthus
Protocol: Thus, PPO proteins of wild type and variants were expressed as fused to MBP and were used for experiments.
The following process for purification of PPO protein was performed in a 4° C. cold room. […] The column was washed with 3 column volumes of buffer and the presence of protein in the washing solution was examined. When the protein was no longer detected, the washing procedure was terminated. Then, the MBP-PPO protein was eluted with approximately 2 column volumes of buffer containing 20 mM maltose. The protein concentration of each eluent was determined and the elution was stopped when the protein was no longer detected. Ten microliter of each fraction was investigated for protein quantification and SDS-PAGE analysis. The highly pure fractions of PPO protein variants were used for the enzyme assay.
Since protoporphyrinogen IX, a substrate of PPO protein, was not commercially available, it was chemically synthesized in the laboratory. Overall process was performed in dark under nitrogen stream. […] of protoporphyrin IX was dissolved in 20 ml of 20% (v/v) EtOH, and stirred under dark condition for 30 minutes. The obtained protoporphyrin IX solution was put into a 15 ml screw tube in an amount of 800 μl, and flushed with nitrogen gas for 5 minutes. To this, 1.5 g of sodium amalgam was added and vigorously shaken for 2 minutes. The lid was opened to exhaust hydrogen gas in the tube. Thereafter, the lid was closed and incubated for 3 minutes. The protoporphyrinogen IX solution was filtered using syringe and cellulose membrane filter. To 600 μl of the obtained protoporphyrinogen IX solution, approximately 300 μl of 2M MOPS [3-(N-morpholino) propanesulfonic acid] was added to adjust pH to 8.0. To determine the enzyme activity of PPO protein, a reaction mixture was prepared with the following composition (based on 10 ml): 50 mM Tris-Cl (pH 8.0); 50 mM NaCl; 0.04% (v/v) Tween 20; 40 mM glucose (0.072 g); 5 units glucose oxidase (16.6 mg); and 10 units catalase (1 μl).
Hundred and eighty microliters of a reaction mixture […] were placed in 96 well plates and 20 μl of purified PPO proteins were added. After 50 μl of the mineral oil was layered, the reaction was initiated by adding the substrate, protoporphyrinogen IX solution, to a final concentration of 50 μM. The reaction proceeded at room temperature for 30 min and the fluorescence of protoporphyrin IX was measured using Microplate reader (Sense, Hidex) (excitation: 405 nm; emission: 633 nm). To calculate the PPO enzyme activity, the protoporphyrinogen IX solution was kept open in the air overnight to oxidize the solution. To this, 2.7 N HCl was added, and the absorbance at 408 nm was measured. A standard curve was generated using standard protoporphyrin IX, and PPO activity was measured by calibration of protoporphyrin IX using the standard curve of protoporphyrin IX.
Activities of variants were presented relatively compared to that of wild type.
With B1 the “Activity (%)” value was 75%.
For B2, the “Activity (%)” value was 33%.
With B3 the “Activity (%)” value was 87%.
With B4 the “Activity (%)” value was 77%.
With B5 the “Activity (%)” value was 86%.
In the case of B6, the “Activity (%)” value is reported as 47%.
B7 was tested, and the “Activity (%)” value was 82%.
With B8 the “Activity (%)” value was 91%.
